This assay addresses T1, p17 (the fourth subunit of xPol ε complex) (Xenopus, UniProt Q6WSQ3 1-147).
T1 construct: p17 subunit of Xenopus DNA polymerase epsilon, 147 amino acids; also called xPol ε p17; source: sf21 insect cells, baculovirus, co-expressed, in crude extract
T1 sequence (looked up): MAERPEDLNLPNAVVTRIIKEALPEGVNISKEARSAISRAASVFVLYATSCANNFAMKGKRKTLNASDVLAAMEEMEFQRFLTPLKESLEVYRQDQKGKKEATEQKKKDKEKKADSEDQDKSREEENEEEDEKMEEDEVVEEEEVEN
Kind of assay: not stated; data not shown; p12 and p17 in insect cells.

What is called stoichiometry N is a count of units in the complex or per binding partner.

B1: p12 (the third subunit of xPol ε complex) (natural protein, Xenopus, UniProt Q0EAE6 1-116, looked up)
chain: MAAEVAAPESLEGSGSQEDAGPSSPPAAHPAPCPSKQARLPLSRIKALMKADPDLSLASQESVFVISKATELFIETIAKDAYLYAQQGKRKTLQRKDLDNAIDAIDEFAFLEGTLD
notes: p12 subunit of Xenopus DNA polymerase epsilon, 116 amino acids; also called xPol ε p12; source: sf21 insect cells, baculovirus, co-expressed, in crude extract
For the molecule B1, the “stoichiometry N” value was 1.
